# Reference: PMC8391295, “Unraveling Human AQP5-PIP Molecular Interaction and Effect on AQP5 Salivary Glands Localization in SS Patients” (Cells, 2021)
# B1: mature C-terminal His-tag PIP (prolactin-inducible protein, residues 29-146) (natural protein, human, UniProt P12273 29-146, looked up)
# chain: QDNTRKIIIKNFDIPKSVRPNDEVTAVLAVQTELKECMVVKTYLISSIPLQGAFNYKYTACLCDDNPKTFYWDFYTNRTVQIAAVVDVIRELGICPDDAAVIPIKNNRFYTIEILKVE
# modifications: non homogeneously glycosylated; labeled with an amine-reactive dye (Monolith NT Protein RED-NHS Labeling Kit) in the MST experiments
# notes: also called recombinant PIP; purified PIP; source: Pichia pastoris, secreted into the media, purified (HisTrap HP, Superdex 200); not shown: His6 (thrombin-cleavable), C-terminal, kept
# Target: T1, full-length His-tagged AQP5 (human, UniProt P55064 1-265)
# T1 construct: aquaporin-5 (AQP5), human, full-length construct with His-tag; also called FL-AQP5; full-length AQP5; source: Pichia pastoris X-33, purified (solubilised in NG, Resource S, Superdex 200)
# Assay: MST; labeled PIP at 42 nM, 1:1 dilution series of AQP5; 20 mM phosphate buffer pH 7.5, 100 mM NaCl, 0.8% NG; Hill equation fit on total monomeric AQP5 concentration; triplicates
# Settings: both partners purified
# T1 sequence (P55064 whole entry): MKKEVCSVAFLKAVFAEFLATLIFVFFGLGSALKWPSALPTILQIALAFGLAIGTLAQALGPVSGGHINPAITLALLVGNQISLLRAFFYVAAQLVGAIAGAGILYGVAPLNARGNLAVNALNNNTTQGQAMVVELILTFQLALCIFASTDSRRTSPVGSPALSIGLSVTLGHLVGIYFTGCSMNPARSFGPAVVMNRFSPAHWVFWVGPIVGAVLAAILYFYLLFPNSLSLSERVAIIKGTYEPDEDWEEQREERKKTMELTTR
binder,measurement,value
B1,Kd,570 nM
